Numbering of substitutions follows the chain as printed. Names and notes keep the numbering of the source.
Experiments:
AbiA = target: T1, AbiA (Lactococcus lactis, UniProt Q48596); experiment: extension of […]-labelled co-purified covalently attached DNA, urea-PAGE autoradiography; assay type: biochemical; details: 200 uM single dNTP, 50 mM Tris pH 7.0, 250 mM NaCl, 10 mM MgCl2, 5 mM DTT, 37 C; DNA pre-labelled with alpha-33P-dATP; template-independent, protein-primed
T1 construct: full-length, 628 residues, N-terminal His6-tag kept (no SUMO), made in E. coli BL21 Star; plasmid-encoded in the source; homodimer (148 kDa theoretical); co-purifies with covalently attached ssDNA
T1 sequence (Q48596 1-628): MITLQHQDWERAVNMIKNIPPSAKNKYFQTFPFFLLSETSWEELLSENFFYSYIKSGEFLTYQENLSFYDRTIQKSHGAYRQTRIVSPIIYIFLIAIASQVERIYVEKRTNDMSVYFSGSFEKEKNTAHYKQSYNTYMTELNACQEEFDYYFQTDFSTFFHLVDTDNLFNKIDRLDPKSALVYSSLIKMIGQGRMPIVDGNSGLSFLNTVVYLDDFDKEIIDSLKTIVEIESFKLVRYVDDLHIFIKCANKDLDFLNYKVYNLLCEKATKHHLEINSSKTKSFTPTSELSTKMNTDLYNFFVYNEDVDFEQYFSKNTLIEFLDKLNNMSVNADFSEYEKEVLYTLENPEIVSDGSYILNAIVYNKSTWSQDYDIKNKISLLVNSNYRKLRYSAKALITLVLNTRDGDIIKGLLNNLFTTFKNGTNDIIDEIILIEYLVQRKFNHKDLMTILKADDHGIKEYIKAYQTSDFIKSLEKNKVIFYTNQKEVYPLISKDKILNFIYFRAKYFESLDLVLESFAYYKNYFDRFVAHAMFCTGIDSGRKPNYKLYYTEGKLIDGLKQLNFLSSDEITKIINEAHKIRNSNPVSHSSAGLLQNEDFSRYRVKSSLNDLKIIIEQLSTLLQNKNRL

[1] = target: the molecule itself; experiment: SEC-MALS; Superdex 200 Increase 10/300 GL; 25 mM Tris pH 7.0, 400 mM NaCl, 2% glycerol, 1 mM DTT; 0.75 ml/min; self-association of AbiA variants
[2] = target: the molecule itself; experiment: SEC-MALS; GF/MALS of tryptophan substitution variants of the dimer interface; data not shown

In the case of `Nc1ncnc2c1ncn2[C@H]1C[C@H](O)[C@@H](COP(=O)(O)OP(=O)(O)OP(=O)(O)O)O1` [dATP], the “extension of 33P-labelled co-purified covalently attached DNA, urea-PAGE autorad” value (AbiA) is reported as “dATP and dCTP were incorporated with efficiencies similar to those observed with dNTP mix”.

With `Nc1ccn([C@H]2C[C@H](O)[C@@H](COP(=O)(O)OP(=O)(O)OP(=O)(O)O)O2)c(=O)n1` [dCTP] the “extension of 33P-labelled co-purified covalently attached DNA, urea-PAGE autorad” value (AbiA) was “dATP and dCTP were incorporated with efficiencies similar to those observed with dNTP mix”.

B1: His6-SUMO-AbiA fusion protein (full-length AbiA from L. lactis with uncleaved SUMO tag) (enzyme, UniProt Q48596 1-628, looked up)
chain: T1 sequence (Q48596 1-628)
modifications: co-purified ssDNA; the paper shows covalent attachment, with priming at Tyr298 or Tyr303, on the His-tagged protein; 5-9 nt visible in the structure
notes: AbiA, plasmid-encoded abortive infection RT-like polymerase of Lactococcus lactis, full length, 628 amino acid residues; synthetic gene in pET28a-SUMO; The SUMO tag is not visible in the structure; also called full-length SUMO-tagged AbiA; AbiA with an uncleaved SUMO tag; source: E. coli BL21 STAR, purified (HisTrap HP, Superdex 200); not shown: His6, N-terminal, kept; SUMO, N-terminal, kept
With B1 the “stoichiometry N” value [1] was 2.

B2: AbiA L515W (enzyme, L. lactis, UniProt Q48596 1-628, looked up)
chain: T1 sequence (Q48596 1-628) with L515W
notes: AbiA of Lactococcus lactis, 628 residues, with a tryptophan substitution in the dimer interface; The methods say point substitutions were introduced into the N-terminal His6-tag construct; Expression and purification of this variant are not described separately
B2 was tested, and the “stoichiometry N” value [2] was 2.

B3: AbiA Y80W/T269W (enzyme, L. lactis, UniProt Q48596 1-628, looked up)
chain: T1 sequence (Q48596 1-628) with Y80W, T269W
notes: AbiA of Lactococcus lactis, 628 residues, with tryptophan substitutions in the dimer interface; The methods say point substitutions were introduced into the N-terminal His6-tag construct; Expression and purification of this variant are not described separately
With B3 the “stoichiometry N” value [2] was 2.

B4: AbiA L162W/R601A (enzyme, L. lactis, UniProt Q48596 1-628, looked up)
chain: T1 sequence (Q48596 1-628) with L162W, R601A
notes: AbiA of Lactococcus lactis, 628 residues, with substitutions in the dimer interface; The methods say point substitutions were introduced into the N-terminal His6-tag construct; Expression and purification of this variant are not described separately
In the case of B4, the “stoichiometry N” value [2] is reported as 2.

B5: AbiA Y80W/T269W/L515W (enzyme, L. lactis, UniProt Q48596 1-628, looked up)
chain: T1 sequence (Q48596 1-628) with Y80W, T269W, L515W
notes: as for B3
With B5 the “stoichiometry N” value [2] was 2.

B6: full-length untagged AbiA (enzyme, L. lactis, UniProt Q48596 1-628, looked up)
chain: T1 sequence (Q48596 1-628)
modifications: co-purified ssDNA covalently attached (priming at Tyr298 or Tyr303)
notes: AbiA, plasmid-encoded abortive infection RT-like polymerase of Lactococcus lactis, full length, 628 amino acid residues; The results call it 'untagged'; The only SUMO-free construct in the methods carries an N-terminal His6-tag, and the SUMO tag could not be cleaved, so this is probably His6-AbiA; also called AbiA without SUMO tag; AbiA without a tag; source: E. coli BL21 STAR, purified (HisTrap …)
B6 was tested, and the “stoichiometry N” value [1] was 2.
